Measurements published in patent US20260200999A1, “SYNTHETIC TRANSCRIPTION FACTORS” (ETH ZURICH, priority 2022, published 2026).

B1: SEQ ID NO: 51: negative control promoter comprising 5 scrambled DNA binding sites spaced by 10 bp (nucleic acid)
DNA: ATTCTACCGTCTCGGGCCATTAAAGGCATATGATTCTACCGTCTCGGGCCATTAAAGGCATATGATTCTACCGTCTCGGGCCATTAAAGGCATATGATTCTACCGTCTCGGGCCATTAAAGGCATATGATTCTACCGTCTCGGGCCATTA
B2: codon optimized MTF construct: DNA construct encoding MTF with codons changed to the most common ones in humans (nucleic acid)
DNA: ATGTTCGGCGTGAAGTGCCACAACACCGACAGCGAGCCCCTGAAGAACGAGGACCTGCTGAAGAACCTGCTGACCATGGGCGTGGACATCGACATGGCCCGCAAGCGCCAGCCCGGCGTGTTCCACCGCATGATCACCAACGAGCAGGACCTGAAGATGTTCCTGCTGAGCAAGGGCGCCAGCAAGGAGGTGATCGCCAGCATCATCAGCCGCTACCCCCGCGCCATCACCCGCACCCCCGAGAACCTGAGCAAGCGCTGGGACCTGTGGCGCAAGATCGTGACCAGCGACCTGGAGATCGTGAACATCCTGGAGCGCAGCCCCGAGAGCTTCTTCCGCAGCAACAACAACCTGAACCTGGAGAACAACATCAAGTTCCTGTATAGCGTGGGCCTGACCCGCAAGTGCCTGTGCCGCCTGCTGACCAACGCCCCCCGCACCTTCAGCAACAGCCTGGACCTGAACAAGCAGATGGTGGAGTTCCTGCAGGCCGCCGGCCTGAGCCTGGGCCACAACGACCCCGCCGACTTCGTGCGCAAGATCATCTTCAAGAACCCCTTCATCCTGATCCAGAGCACCAAGCGCGTGAAGGCCAACATCGAGTTCCTGCGCAGCACCTTCAACCTGAACAGCGAGGAGCTGCTGGTGCTGATCTGCGGCCCCGGCGCCGAGATCCTGGACCTGAGCAACGACTACGCCCGCCGCAGCTACGCCAACATCAAGGAGAAGCTGTTCAGCCTGGGCTGCACCGAGGAGGAGGTGCAGAAGTTCGTGCTGAGCTACCCCGACGTGATCTTCCTGGCCGAGAAGAAGTTCAACGACAAGATCGACTGCCTGATGGAGGAGAACATCAGCATCAGCCAGATCATCGAGAACCCCCGCGTGCTGGACAGCAGCATCAGCACCCTGAAGAGCCGCATCAAGGAGCTGGTGAACGCCGGCTGCAACCTGAGCACCCTGAACATCACCCTGCTGAGCTGGAGCAAGAAGCGCTACGAGGCCAAGCTGAAGAAGCTGAGCCGCTTCGCCCAGGCCGGCGAGGGCACCCTGAGCGAGGCCCTGCTGCAGCTGCAGTTCGACGACGAGGACCTGGGCGCCCTGCTGGGCAACAGCACCGACCCCGCCGTGTTCACCGACCTGGCCAGCGTGGACAACAGCGAGTTCCAGCAGCTGCTGAACCAGGGCATCCCCGTGGCCCCCCACACCACCGAGCCCATGCTGATGGAGTACCCCGAGGCCATCACCCGCCTGGTGACCGGAGCACAAAGACCCCCTGATCCTGCGCCAGCACCTCTTGGAGCACCTGGCCTGCCCAACGGCCTGCTGAGCGGCGACGAGGACTTCAGCAGCATCGCCGACATGGACTTCAGCGCCCTGCTGAGCCAGATCAGCAGC

Experiments:
Format in all cases: cell-based, human
[1] = system: reporter construct with MTERF1 binding sites (SEQ ID NO: 42) upstream a minimal TATA box driving mCerulean; assay: mCerulean reporter co-transfection with MTF construct in Hela cells (microscopy, flow cytometry)
Description: The inventors engineered an exemplary “Human-derived transcriptional activator protein” (HumTAP) transactivation system by engineering a HumTAP transactivator and a promoter comprising the Response Elements/MTERF1 binding sites that is operably linked to a gene of interest. A prototype HumTAP protein was made by fusing a peptide consisting of amino acids 58 through 399 of the human MTERF1 gene (MTERF158-399 (SEQ ID NO: 1), Uniprot Q99551) to a peptide consisting of amino acids 430 through 551 of the RELA protein (RelA430-551 (SEQ ID NO: 3), Uniprot Q04206). This fusion is henceforth referred to as MTERF158-399::RelA430-551 (or “MTF”; SEQ ID NO: 100). A DNA construct was made with a strong EF1A promoter driving a constitutive expression of MTF (SEQ ID NO: 101) in human cells (“MTF construct”).
To construct a promoter with Response Elements/MTERF1 binding sites driving the gene of interest, the inventors placed MTERF1 binding sites (SEQ ID NO: 42) upstream a minimal TATA box (SEQ ID NO: 103). An mCerulean fluorescent reporter representing the gene of interest (Gol) was placed downstream of the TATA box. Each of these is referred to as a reporter construct. […] Using flow cytometry, relative mCerulean levels were measured and calculated by normalization to the transfection control in Hela cells (FIG. 1C). […]

[2] = system: Response Element-driven mCerulean reporter (MTERF1 binding sites, SEQ ID NO: 42); assay: mCerulean reporter co-transfection with HumTAP constructs in HEK293 cells (flow cytometry)
Description: To construct a promoter with Response Elements/MTERF1 binding sites driving the gene of interest, the inventors placed MTERF1 binding sites (SEQ ID NO: 42) upstream a minimal TATA box (SEQ ID NO: 103). An mCerulean fluorescent reporter representing the gene of interest (Gol) was placed downstream of the TATA box. Each of these is referred to as a reporter construct. Five different reporter constructs were made comprising respectively 3, 5, 7, 9, and 11 MTERF1 binding sites 6 base pairs apart upstream of the TATA box (FIG. 1A; SEQ ID NO: 41, 44, 45, 46 and 47, respectively). They were co-transfected with the MTF construct into Hela cells. […] Using flow cytometry, relative mCerulean levels were measured and calculated by normalization to the transfection control in Hela cells (FIG. 1C). […] Next, reporter plasmids with varying spacer lengths (0, 6 bp and 10 bp; SEQ ID NO: 48, 44 and 49, respectively) (FIG. 1F) between a fixed number of REs (i.e. 5 REs/MTERF1 binding sites) were transfected with the MTF construct. […] This was confirmed using flow cytometry (FIG. 1H). […]
With the goal to engineer stronger and possibly shorter HumTAPs, the inventors fused the MTERF158-399 peptide (SEQ ID NO: 1) to a variety of transactivation domains and transfected HEK293 cells with those constructs and the reporter construct comprising 5×RE/MTERF1 binding sites without a spacer between them (SEQ ID NO: 48).
First, MTERF158-399 (SEQ ID NO: 1) was fused with different subsequences of RelA. RelA361-551 (SEQ ID NO: 27) corresponds to the sequence used in the construction of the bacterial-derived synthetic TF PIT2 [19], while RelA342-551 (SEQ ID NO: 29) contains all annotated transactivation domains according to domain annotation under Uniprot Q04206 (https://www.uniprot.org/uniprotkb/Q04206/entry). […] We also fused MTERF158-399 (SEQ ID NO: 1) to a set of transactivation domains previously found to be strong activators with a small genetic footprint (FIG. 4B).
To further decrease the DNA footprint of a HumTAP, the inventors investigated to what degree the DNA binding domain may be reduced. To this end, the inventors created 3 versions of MTERF1 subsequences fused to RelA430-551 (SEQ ID NO: 3). MTERF173-399 (SEQ ID NO: 7), MTERF1104-399 (SEQ ID NO: 9), and MTERF1135-399 (SEQ ID NO: 11) are subunits of MTERF1 without its mitochondrial transfer peptide (MTERF11-57; SEQ ID NO: 37) that either lack only the first […] N-terminal amino acids (MTERF58-72; SEQ ID NO: 39) or additionally, also lack the first (MTERF173-98; SEQ ID NO: 104) or both the first and second (MTERF1104-134; SEQ ID NO: 106) mterf motifs (FIG. 5A). The removal of N-terminal domains reduces the genetic footprint of a HumTAP (FIG. 5B). These constructs were co-transfected into HEK293 cells with the reporter construct containing 5×RE without a spacer in its promoter (SEQ ID NO: 48).
In addition to RelA430-551 (termed “v1”), the inventors tested three alternative subsequences: v2) RelA342-551 (SEQ ID NO: 29), which contains all transactivation domains as annotated on UniProt Q04206; v3) RelA361-551 (SEQ ID NO: 27), which is identical to the peptide used in the construction of PIT2 [2]; and v4) RelA521-551 (SEQ ID NO: 31), which constitutes only the transactivation domain 1 (TA1). The protein domains WW (SEQ ID NO: 21), KRAB of ZNF473 (SEQ ID NO: 23), Nuc-rec-co-Act (SEQ ID NO: 25), LMSTEN (SEQ ID NO: 19), and FoxoTAD (SEQ ID NO: 17) were recently identified as strong transactivators. To assess their functionality in the HumTAP context, the inventors created fusion proteins between each of them and MTERF158-399 (SEQ ID NO: 1) (FIG. 9A).
Upon co-transfection of HEK293 cells with plasmids encoding pEF1a-driven expression of the fusion HumTAPs, a Response Element-driven mCerulean reporter protein, and a mCherry transfection control, all peptides derived from RelA except TA1 mediated high levels of reporter gene expression. […]

[3] = system: Response Element-driven mCerulean reporter; assay: Dose dependency of mCerulean reporter expression on transfected MTF construct amount, HEK293; conditions: HEK293, 24-well plates, 100 ng reporter construct, Hill equation, Hill coefficient 1
Experimental: By transfecting different amounts of the codon optimized MTF construct into HEK293 cells the inventors established a dose dependency of mCerulean reporter (Gol) expression on the expression levels of MTF (FIG. 3). HEK293 cells in 24-well plates were transfected with 0.75, 3, 6, 12, 24, 48, 96, 192, and 384 ng of MTF construct, 100 ng of reporter construct, and 50 ng of constitutive mCherry transfection control construct. Two days after transfection, the cells were analyzed using flow cytometry. The dose-response curve was modeled as a Hill equation assuming a Hill coefficient of 1.

Molecule | mCerulean reporter (Gol) expression ([1]; Hela cells co-transfected with MTF construct, microscopy and flow cytometry) | mCerulean reporter (Gol) expression ([2]; HEK293 cells co-transfected with MTF construct, microscopy and flow cytometry) | EC10 of transfected MTF construct ([3]; two days after transfection) [ng] | EC50 of transfected MTF construct ([3]; two days after transfection) [ng] | theoretical EC90 of transfected MTF construct ([3]; slight drop at higher amounts) [ng] | increase of reporter gene expression by codon optimization ([1]; Hela cells, 5xRE 6 bp spacer reporter (SEQ ID NO: 44), versus naturally used codons) | effect of codon optimization on reporter fluorescence levels ([2]; HEK cells)
B1 | did not lead to mCerulean expression | showed the same behavior |  |  |  |  | 
B2 |  |  | 1.25 | 11.24 | 101 | ca. 3 fold | no significant effect
